Measurements published in PMC6797079.

T1: NIS D237A, cerulean- or citrine-tagged, Q92911
T1 chain: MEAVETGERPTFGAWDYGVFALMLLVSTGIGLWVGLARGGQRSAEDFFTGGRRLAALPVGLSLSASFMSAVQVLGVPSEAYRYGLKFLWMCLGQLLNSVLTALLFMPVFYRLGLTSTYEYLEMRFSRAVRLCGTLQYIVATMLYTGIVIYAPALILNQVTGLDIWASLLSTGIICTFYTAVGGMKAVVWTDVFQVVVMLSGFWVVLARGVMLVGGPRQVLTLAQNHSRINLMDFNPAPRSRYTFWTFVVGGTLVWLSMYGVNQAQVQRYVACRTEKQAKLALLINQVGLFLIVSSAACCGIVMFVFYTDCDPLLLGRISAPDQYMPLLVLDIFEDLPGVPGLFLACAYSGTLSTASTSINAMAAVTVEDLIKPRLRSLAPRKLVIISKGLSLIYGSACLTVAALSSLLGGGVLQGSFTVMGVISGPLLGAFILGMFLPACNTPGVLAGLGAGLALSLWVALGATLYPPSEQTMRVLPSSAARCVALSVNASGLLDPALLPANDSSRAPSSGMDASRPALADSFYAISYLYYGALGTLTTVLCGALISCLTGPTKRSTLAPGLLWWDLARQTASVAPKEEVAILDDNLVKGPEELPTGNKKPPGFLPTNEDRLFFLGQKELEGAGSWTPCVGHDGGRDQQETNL

T2: NIS T243A, cerulean- or citrine-tagged, Q92911
T2 chain: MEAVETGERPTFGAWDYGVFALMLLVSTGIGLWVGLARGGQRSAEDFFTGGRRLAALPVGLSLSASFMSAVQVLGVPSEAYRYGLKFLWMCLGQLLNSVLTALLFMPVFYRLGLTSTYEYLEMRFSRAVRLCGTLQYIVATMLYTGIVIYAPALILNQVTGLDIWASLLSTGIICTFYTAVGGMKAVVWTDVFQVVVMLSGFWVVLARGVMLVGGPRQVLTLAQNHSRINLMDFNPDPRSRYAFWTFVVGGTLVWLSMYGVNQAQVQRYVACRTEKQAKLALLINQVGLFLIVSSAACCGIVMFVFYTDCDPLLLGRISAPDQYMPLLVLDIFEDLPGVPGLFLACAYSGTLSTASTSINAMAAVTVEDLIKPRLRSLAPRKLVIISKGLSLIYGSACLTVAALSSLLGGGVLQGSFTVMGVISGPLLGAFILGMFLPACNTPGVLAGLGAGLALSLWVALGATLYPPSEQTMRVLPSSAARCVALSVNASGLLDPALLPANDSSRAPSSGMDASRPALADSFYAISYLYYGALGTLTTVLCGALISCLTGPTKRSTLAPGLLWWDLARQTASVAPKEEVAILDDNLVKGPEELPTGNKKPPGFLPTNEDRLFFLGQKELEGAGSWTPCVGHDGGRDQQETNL

T3: NIS Y242A, cerulean- or citrine-tagged, Q92911
T3 chain: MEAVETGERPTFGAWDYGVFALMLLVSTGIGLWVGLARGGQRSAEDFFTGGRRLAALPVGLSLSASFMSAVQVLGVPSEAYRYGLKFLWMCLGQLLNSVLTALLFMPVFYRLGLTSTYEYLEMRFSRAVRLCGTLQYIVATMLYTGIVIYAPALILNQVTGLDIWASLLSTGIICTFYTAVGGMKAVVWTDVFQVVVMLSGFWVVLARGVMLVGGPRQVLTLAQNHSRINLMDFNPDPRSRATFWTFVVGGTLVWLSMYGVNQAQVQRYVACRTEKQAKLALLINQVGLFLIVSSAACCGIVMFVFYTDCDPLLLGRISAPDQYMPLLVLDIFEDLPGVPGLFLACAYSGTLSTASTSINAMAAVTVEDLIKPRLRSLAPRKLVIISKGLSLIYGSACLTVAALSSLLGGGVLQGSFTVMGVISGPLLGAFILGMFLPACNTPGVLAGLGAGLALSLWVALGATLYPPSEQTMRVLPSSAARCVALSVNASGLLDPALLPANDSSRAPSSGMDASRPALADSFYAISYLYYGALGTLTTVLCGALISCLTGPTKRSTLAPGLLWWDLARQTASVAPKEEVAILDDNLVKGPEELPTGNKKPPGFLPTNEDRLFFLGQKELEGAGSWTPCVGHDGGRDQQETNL


Legend:
Assay in all cases: FRET
Conditions in all cases: chain shown with the change, n = 2, minimum of 20 cells analyzed in each n, read off a plot
[1] = target: T1, NIS D237A, cerulean- or citrine-tagged, …
[2] = target: T2, NIS T243A, cerulean- or citrine-tagged, …
[3] = target: T3, NIS Y242A, cerulean- or citrine-tagged, …

| response ([3]; HeLa cells, parent: est. 15) | response ([3]; SW1736 cells, parent: est. -10) | Binder | other results |
| --- | --- | --- | --- |
|  |  | sodium/iodide symporter (NIS), wild type, cerulean- or citrine-tagged, Q92911 Cer:A525F; Cit:D237A (protein) MEAVETGERPTFGAWDYGVFALMLLVSTGIGLWVGLARGGQRSAEDFFTGGRRLAALPVGLSLSASFMSAVQVLGVPSEAYRYGLKFLWMCLGQLLNSVLTALLFMPVFYRLGLTSTYEYLEMRFSRAVRLCGTLQYIVATMLYTGIVIYAPALILNQVTGLDIWASLLSTGIICTFYTAVGGMKAVVWTDVFQVVVMLSGFWVVLARGVMLVGGPRQVLTLAQNHSRINLMDFNPDPRSRYTFWTFVVGGTLVWLSMYGVNQAQVQRYVACRTEKQAKLALLINQVGLFLIVSSAACCGIVMFVFYTDCDPLLLGRISAPDQYMPLLVLDIFEDLPGVPGLFLACAYSGTLSTASTSINAMAAVTVEDLIKPRLRSLAPRKLVIISKGLSLIYGSACLTVAALSSLLGGGVLQGSFTVMGVISGPLLGAFILGMFLPACNTPGVLAGLGAGLALSLWVALGATLYPPSEQTMRVLPSSAARCVALSVNASGLLDPALLPANDSSRAPSSGMDASRPALADSFYFISYLYYGALGTLTTVLCGALISCLTGPTKRSTLAPGLLWWDLARQTASVAPKEEVAILDDNLVKGPEELPTGNKKPPGFLPTNEDRLFFLGQKELEGAGSWTPCVGHDGGRDQQETNL | response ([1]; HeLa cells, parent: est. 15): 50; response ([1]; SW1736 cells, parent: est. -10): -180 |
|  |  | sodium/iodide symporter (NIS), wild type, cerulean- or citrine-tagged, Q92911 Cer:Q471A; Cit:T243A (protein) MEAVETGERPTFGAWDYGVFALMLLVSTGIGLWVGLARGGQRSAEDFFTGGRRLAALPVGLSLSASFMSAVQVLGVPSEAYRYGLKFLWMCLGQLLNSVLTALLFMPVFYRLGLTSTYEYLEMRFSRAVRLCGTLQYIVATMLYTGIVIYAPALILNQVTGLDIWASLLSTGIICTFYTAVGGMKAVVWTDVFQVVVMLSGFWVVLARGVMLVGGPRQVLTLAQNHSRINLMDFNPDPRSRYTFWTFVVGGTLVWLSMYGVNQAQVQRYVACRTEKQAKLALLINQVGLFLIVSSAACCGIVMFVFYTDCDPLLLGRISAPDQYMPLLVLDIFEDLPGVPGLFLACAYSGTLSTASTSINAMAAVTVEDLIKPRLRSLAPRKLVIISKGLSLIYGSACLTVAALSSLLGGGVLQGSFTVMGVISGPLLGAFILGMFLPACNTPGVLAGLGAGLALSLWVALGATLYPPSEATMRVLPSSAARCVALSVNASGLLDPALLPANDSSRAPSSGMDASRPALADSFYAISYLYYGALGTLTTVLCGALISCLTGPTKRSTLAPGLLWWDLARQTASVAPKEEVAILDDNLVKGPEELPTGNKKPPGFLPTNEDRLFFLGQKELEGAGSWTPCVGHDGGRDQQETNL | response ([2]; HeLa cells, parent: est. 15): -100; response ([2]; SW1736 cells, parent: est. -10): -330 |
| 120 | -50 | sodium/iodide symporter (NIS), wild type, cerulean- or citrine-tagged, Q92911 Cer:A525F; Cit:Y242A (protein) MEAVETGERPTFGAWDYGVFALMLLVSTGIGLWVGLARGGQRSAEDFFTGGRRLAALPVGLSLSASFMSAVQVLGVPSEAYRYGLKFLWMCLGQLLNSVLTALLFMPVFYRLGLTSTYEYLEMRFSRAVRLCGTLQYIVATMLYTGIVIYAPALILNQVTGLDIWASLLSTGIICTFYTAVGGMKAVVWTDVFQVVVMLSGFWVVLARGVMLVGGPRQVLTLAQNHSRINLMDFNPDPRSRYTFWTFVVGGTLVWLSMYGVNQAQVQRYVACRTEKQAKLALLINQVGLFLIVSSAACCGIVMFVFYTDCDPLLLGRISAPDQYMPLLVLDIFEDLPGVPGLFLACAYSGTLSTASTSINAMAAVTVEDLIKPRLRSLAPRKLVIISKGLSLIYGSACLTVAALSSLLGGGVLQGSFTVMGVISGPLLGAFILGMFLPACNTPGVLAGLGAGLALSLWVALGATLYPPSEQTMRVLPSSAARCVALSVNASGLLDPALLPANDSSRAPSSGMDASRPALADSFYFISYLYYGALGTLTTVLCGALISCLTGPTKRSTLAPGLLWWDLARQTASVAPKEEVAILDDNLVKGPEELPTGNKKPPGFLPTNEDRLFFLGQKELEGAGSWTPCVGHDGGRDQQETNL |  |
| -100 | -220 | sodium/iodide symporter (NIS), wild type, cerulean- or citrine-tagged, Q92911 Cer:Q471A; Cit:Y242A (protein) MEAVETGERPTFGAWDYGVFALMLLVSTGIGLWVGLARGGQRSAEDFFTGGRRLAALPVGLSLSASFMSAVQVLGVPSEAYRYGLKFLWMCLGQLLNSVLTALLFMPVFYRLGLTSTYEYLEMRFSRAVRLCGTLQYIVATMLYTGIVIYAPALILNQVTGLDIWASLLSTGIICTFYTAVGGMKAVVWTDVFQVVVMLSGFWVVLARGVMLVGGPRQVLTLAQNHSRINLMDFNPDPRSRYTFWTFVVGGTLVWLSMYGVNQAQVQRYVACRTEKQAKLALLINQVGLFLIVSSAACCGIVMFVFYTDCDPLLLGRISAPDQYMPLLVLDIFEDLPGVPGLFLACAYSGTLSTASTSINAMAAVTVEDLIKPRLRSLAPRKLVIISKGLSLIYGSACLTVAALSSLLGGGVLQGSFTVMGVISGPLLGAFILGMFLPACNTPGVLAGLGAGLALSLWVALGATLYPPSEATMRVLPSSAARCVALSVNASGLLDPALLPANDSSRAPSSGMDASRPALADSFYAISYLYYGALGTLTTVLCGALISCLTGPTKRSTLAPGLLWWDLARQTASVAPKEEVAILDDNLVKGPEELPTGNKKPPGFLPTNEDRLFFLGQKELEGAGSWTPCVGHDGGRDQQETNL |  |
